Assays:
Experiment in all cases: flow cytometry, protein L-biotin then streptavidin-PE on CAR T cells
[1] = molecular target: tandem CD20/CD19 chimeric antigen receptor, Construct CAR 2019 (Leader-CD20 VH (GGGGS)3-CD20 VL-(GGGGS)5-CD19 VL-Whitlow linker-CD19 VH CD8 hinge+TM-4-1BB-CD3z)
[2] = molecular target: CARs on the transduced T cell surface
[3] = molecular target: tandem CD19/CD20 chimeric antigen receptor, Construct CAR 1920 (Leader-CD19 VL-Whitlow linker CD19 VH (GGGGS)-5 CD20 VH (GGGGS)-3 CD20 VL CD8 hinge+TM-4-1BB-CD3z)
tandem CD19/CD20 chimeric antigen receptor, Construct CAR 1920 (Leader-CD19 VL-Whitlow linker CD19 VH (GGGGS)-5 CD20 VH (GGGGS)-3 CD20 VL CD8 hinge+TM-4-1BB-CD3z), sequence (chain, as listed by the source mutant): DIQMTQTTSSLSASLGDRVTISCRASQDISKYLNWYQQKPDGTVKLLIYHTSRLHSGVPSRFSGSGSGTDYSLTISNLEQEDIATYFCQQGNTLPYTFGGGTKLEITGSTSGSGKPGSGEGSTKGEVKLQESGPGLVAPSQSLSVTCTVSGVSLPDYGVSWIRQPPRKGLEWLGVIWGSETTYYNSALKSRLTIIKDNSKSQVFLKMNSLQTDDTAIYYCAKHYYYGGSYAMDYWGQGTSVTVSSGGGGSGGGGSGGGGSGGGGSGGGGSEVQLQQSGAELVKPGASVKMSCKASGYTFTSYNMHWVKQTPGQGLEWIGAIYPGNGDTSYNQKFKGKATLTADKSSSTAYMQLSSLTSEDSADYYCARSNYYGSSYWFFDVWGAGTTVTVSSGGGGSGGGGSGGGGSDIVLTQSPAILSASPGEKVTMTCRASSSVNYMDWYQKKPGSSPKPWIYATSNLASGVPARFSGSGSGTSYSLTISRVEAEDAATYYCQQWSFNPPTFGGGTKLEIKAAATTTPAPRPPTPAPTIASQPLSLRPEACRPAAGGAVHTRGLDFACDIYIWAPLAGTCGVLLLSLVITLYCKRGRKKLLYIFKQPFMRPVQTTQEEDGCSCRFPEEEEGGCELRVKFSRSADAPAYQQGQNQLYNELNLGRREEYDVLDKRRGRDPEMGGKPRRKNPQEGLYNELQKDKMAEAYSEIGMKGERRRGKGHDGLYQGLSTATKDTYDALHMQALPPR

tandem CD20/CD19 chimeric antigen receptor, Construct CAR 2019 (Leader-CD20 VH (GGGGS)3-CD20 VL-(GGGGS)5-CD19 VL-Whitlow linker-CD19 VH CD8 hinge+TM-4-1BB-CD3z), sequence (chain, as listed by the source mutant): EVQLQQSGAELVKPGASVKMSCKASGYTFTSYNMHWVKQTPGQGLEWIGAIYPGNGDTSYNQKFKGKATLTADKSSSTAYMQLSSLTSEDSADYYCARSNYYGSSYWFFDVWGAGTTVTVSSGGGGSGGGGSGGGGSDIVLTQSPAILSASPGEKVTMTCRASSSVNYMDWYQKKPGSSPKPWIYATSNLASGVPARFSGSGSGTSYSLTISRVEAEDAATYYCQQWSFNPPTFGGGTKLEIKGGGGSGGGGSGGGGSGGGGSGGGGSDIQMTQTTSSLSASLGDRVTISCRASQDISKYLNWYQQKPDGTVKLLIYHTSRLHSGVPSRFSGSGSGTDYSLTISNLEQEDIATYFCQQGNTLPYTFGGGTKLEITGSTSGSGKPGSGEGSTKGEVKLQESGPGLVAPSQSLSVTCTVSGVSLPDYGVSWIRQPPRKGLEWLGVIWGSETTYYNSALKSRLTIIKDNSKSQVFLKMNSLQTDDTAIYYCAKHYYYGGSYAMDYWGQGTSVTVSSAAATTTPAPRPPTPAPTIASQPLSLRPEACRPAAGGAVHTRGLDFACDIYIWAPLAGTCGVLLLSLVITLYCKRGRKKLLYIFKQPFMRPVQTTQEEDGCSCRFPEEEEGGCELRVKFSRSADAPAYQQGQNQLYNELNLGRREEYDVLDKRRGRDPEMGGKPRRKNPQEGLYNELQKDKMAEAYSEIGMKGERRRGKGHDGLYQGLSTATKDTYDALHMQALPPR

## protein L-biotin conjugate (GenScript)
[1]
  percent of transduced T cells stained: 89%
[2]
  percent of transduced T cells stained (CAR surface expression): 61 to 93%
[3]
  percent of transduced T cells stained: 85%

— patent US20240034802A1
